Test [1] has as its target T1, human TIGIT on HEK-Blue reporter cells (human, UniProt Q495A1 22-244).
T1 sequence (looked up): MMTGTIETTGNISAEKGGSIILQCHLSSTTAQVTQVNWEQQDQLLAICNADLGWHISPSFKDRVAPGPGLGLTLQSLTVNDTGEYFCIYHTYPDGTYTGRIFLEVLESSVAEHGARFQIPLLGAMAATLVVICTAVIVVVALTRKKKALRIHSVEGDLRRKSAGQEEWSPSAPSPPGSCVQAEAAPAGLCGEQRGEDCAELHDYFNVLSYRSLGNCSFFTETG
Briefly: cell-based or functional assay.

Test [2] has as its target T2, human IL-2 receptor (IL-2Rα, IL-2Rβ, IL-2Rγ) (human, UniProt P01589 22-272; P14784 27-551; P31785 23-369).
T2 sequence (looked up) 1: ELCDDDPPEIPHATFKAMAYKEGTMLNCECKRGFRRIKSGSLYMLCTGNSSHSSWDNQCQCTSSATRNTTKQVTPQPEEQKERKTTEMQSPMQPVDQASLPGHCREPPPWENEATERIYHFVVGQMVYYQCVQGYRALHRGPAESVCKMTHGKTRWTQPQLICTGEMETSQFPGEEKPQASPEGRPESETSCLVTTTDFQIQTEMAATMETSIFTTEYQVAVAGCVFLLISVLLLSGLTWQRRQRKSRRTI
T2 sequence (looked up) 2: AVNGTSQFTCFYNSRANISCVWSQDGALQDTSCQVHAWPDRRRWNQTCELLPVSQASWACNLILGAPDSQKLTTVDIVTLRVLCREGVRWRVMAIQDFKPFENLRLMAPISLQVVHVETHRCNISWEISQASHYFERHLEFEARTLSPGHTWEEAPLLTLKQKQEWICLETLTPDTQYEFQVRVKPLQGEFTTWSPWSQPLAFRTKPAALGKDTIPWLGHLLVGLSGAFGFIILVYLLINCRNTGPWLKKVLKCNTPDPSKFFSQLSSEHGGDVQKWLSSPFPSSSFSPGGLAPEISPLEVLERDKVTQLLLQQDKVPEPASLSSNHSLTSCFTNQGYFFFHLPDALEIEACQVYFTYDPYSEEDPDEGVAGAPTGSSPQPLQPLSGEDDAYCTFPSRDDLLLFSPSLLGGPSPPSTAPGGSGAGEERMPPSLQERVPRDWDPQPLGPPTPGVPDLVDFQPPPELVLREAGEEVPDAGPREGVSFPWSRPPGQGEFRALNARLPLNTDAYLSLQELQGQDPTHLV
T2 sequence (looked up) 3: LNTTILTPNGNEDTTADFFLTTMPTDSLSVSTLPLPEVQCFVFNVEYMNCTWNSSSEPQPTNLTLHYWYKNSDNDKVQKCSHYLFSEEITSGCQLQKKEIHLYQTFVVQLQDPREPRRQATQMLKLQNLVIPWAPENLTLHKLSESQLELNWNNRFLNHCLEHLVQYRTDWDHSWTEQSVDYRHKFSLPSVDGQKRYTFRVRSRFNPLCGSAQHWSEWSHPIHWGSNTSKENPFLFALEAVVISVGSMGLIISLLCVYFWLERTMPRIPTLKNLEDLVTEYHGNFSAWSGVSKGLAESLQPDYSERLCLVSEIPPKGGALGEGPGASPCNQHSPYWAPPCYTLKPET
Put plainly: cell-based or functional assay.

B1: CD155-Fc (control) (Fc fusion)
chain 1: WPPPGTGDVVVQAPTQVPGFLGDSVTLPCYLQVPNMEVTHVSQLTWARHGESGSMAVFHQTQGPSYSESKRLEFVAARLGAELRNASLRMFGLRVEDEGNYTCLFVTFPQGSRSVDIWLRVLAKPQNTAEVQKVQLTGEPVPMARCVSTGGRPPAQITWHSDLGGMPNTSQVPGFLSGTVTVTSLWILVPSSQVDGKNVTCKVEHESFEKPQLLTVNLTVYYPPEVSISGYDNNWYLGQNEATLTCDARSNPEPTGYNWSTTMGPLPPFAVAQGAQLLIRPVDKPINTTLICNVTNALGARQAELTVQVKEGPPSEHSGISRNGGGGSGGGDKTHTCPPCPAPEDEGGPSVFLFPPKPKDTLMISRTPEVTCVVVDVSHEDPEVKFNWYVDGVEVHNAKTKPREEQYNSTYRVVSVLTVLHQDWLNGKEYKCKVSNKALPAPIEKTISKAKGQPREPQVYVYPPSREEMTKNQVSLTCLVKGFYPSDIAVEWESNGQPENNYKTTPPVLDEDGSFALVSKLTVDKSRWQQGNVFSCSVMHEALHNHYTQKSLSLSPGK
chain 2: WPPPGTGDVVVQAPTQVPGFLGDSVTLPCYLQVPNMEVTHVSQLTWARHGESGSMAVFHQTQGPSYSESKRLEFVAARLGAELRNASLRMFGLRVEDEGNYTCLFVTFPQGSRSVDIWLRVLAKPQNTAEVQKVQLTGEPVPMARCVSTGGRPPAQITWHSDLGGMPNTSQVPGFLSGTVTVTSLWILVPSSQVDGKNVTCKVEHESFEKPQLLTVNLTVYYPPEVSISGYDNNWYLGQNEATLTCDARSNPEPTGYNWSTTMGPLPPFAVAQGAQLLIRPVDKPINTTLICNVTNALGARQAELTVQVKEGPPSEHSGISRNGGGGSGGGDKTHTCPPCPAPEKKGGPSVFLFPPKPKDTLMISRTPEVTCVVVDVSHEDPEVKFNWYVDGVEVHNAKTKPREEQYNSTYRVVSVLTVLHQDWLNGKEYKCKVSNKALPAPIEKTISKAKGQPREPQVYVLPPSREEMTKNQVSLLCLVKGFYPSDIAVEWESNGQPENRYMTWPPVLDSDGSFFLYSKLTVDKSRWQQGNVFSCSVMHEALHNHYTQKSLSLSPGK
In the case of B1, the “IL-2 signal transduction, HEK-IL-2-TIGIT” value in test [1] is below 0.1%. Besides, the “IL-2 signal transduction, HEK-IL-2” value in test [2] was below 0.1%.

B2: IL-2(L18R/Q22E/R38D/K43E/E61R)/CD155-Fc (Fc fusion)
chain 1: WPPPGTGDVVVQAPTQVPGFLGDSVTLPCYLQVPNMEVTHVSQLTWARHGESGSMAVFHQTQGPSYSESKRLEFVAARLGAELRNASLRMFGLRVEDEGNYTCLFVTFPQGSRSVDIWLRVLAKPQNTAEVQKVQLTGEPVPMARCVSTGGRPPAQITWHSDLGGMPNTSQVPGFLSGTVTVTSLWILVPSSQVDGKNVTCKVEHESFEKPQLLTVNLTVYYPPEVSISGYDNNWYLGQNEATLTCDARSNPEPTGYNWSTTMGPLPPFAVAQGAQLLIRPVDKPINTTLICNVTNALGARQAELTVQVKEGPPSEHSGISRNGGGGSGGGDKTHTCPPCPAPEDEGGPSVFLFPPKPKDTLMISRTPEVTCVVVDVSHEDPEVKFNWYVDGVEVHNAKTKPREEQYNSTYRVVSVLTVLHQDWLNGKEYKCKVSNKALPAPIEKTISKAKGQPREPQVYVYPPSREEMTKNQVSLTCLVKGFYPSDIAVEWESNGQPENNYKTTPPVLDEDGSFALVSKLTVDKSRWQQGNVFSCSVMHEALHNHYTQKSLSLSPGK
chain 2: WPPPGTGDVVVQAPTQVPGFLGDSVTLPCYLQVPNMEVTHVSQLTWARHGESGSMAVFHQTQGPSYSESKRLEFVAARLGAELRNASLRMFGLRVEDEGNYTCLFVTFPQGSRSVDIWLRVLAKPQNTAEVQKVQLTGEPVPMARCVSTGGRPPAQITWHSDLGGMPNTSQVPGFLSGTVTVTSLWILVPSSQVDGKNVTCKVEHESFEKPQLLTVNLTVYYPPEVSISGYDNNWYLGQNEATLTCDARSNPEPTGYNWSTTMGPLPPFAVAQGAQLLIRPVDKPINTTLICNVTNALGARQAELTVQVKEGPPSEHSGISRNGGGSGAPTSSSTKKTQLQLEHLRLDLEMILNGINNYKNPKLTDMLTFEFYMPKKATELKHLQCLERELKPLEEVLNLAQSKNFHLRPRDLISNINVIVLELKGSETTFMCEYADETATIVEFLNRWITFCQSIISTLTGGGGSGGGDKTHTCPPCPAPEKKGGPSVFLFPPKPKDTLMISRTPEVTCVVVDVSHEDPEVKFNWYVDGVEVHNAKTKPREEQYNSTYRVVSVLTVLHQDWLNGKEYKCKVSNKALPAPIEKTISKAKGQPREPQVYVLPPSREEMTKNQVSLLCLVKGFYPSDIAVEWESNGQPENRYMTWPPVLDSDGSFFLYSKLTVDKSRWQQGNVFSCSVMHEALHNHYTQKSLSLSPGK
As to B2, in test [1], the “IL-2 signal transduction, HEK-IL-2-TIGIT” value was found to be 56%. For the same molecule, the “IL-2 signal transduction, HEK-IL-2” value in test [2] turned out to be 9%.

B3: IL-2(R38D/K43E/E61R/Q126T)/CD155-Fc (Fc fusion)
chain 1: WPPPGTGDVVVQAPTQVPGFLGDSVTLPCYLQVPNMEVTHVSQLTWARHGESGSMAVFHQTQGPSYSESKRLEFVAARLGAELRNASLRMFGLRVEDEGNYTCLFVTFPQGSRSVDIWLRVLAKPQNTAEVQKVQLTGEPVPMARCVSTGGRPPAQITWHSDLGGMPNTSQVPGFLSGTVTVTSLWILVPSSQVDGKNVTCKVEHESFEKPQLLTVNLTVYYPPEVSISGYDNNWYLGQNEATLTCDARSNPEPTGYNWSTTMGPLPPFAVAQGAQLLIRPVDKPINTTLICNVTNALGARQAELTVQVKEGPPSEHSGISRNGGGGSGGGDKTHTCPPCPAPEDEGGPSVFLFPPKPKDTLMISRTPEVTCVVVDVSHEDPEVKFNWYVDGVEVHNAKTKPREEQYNSTYRVVSVLTVLHQDWLNGKEYKCKVSNKALPAPIEKTISKAKGQPREPQVYVYPPSREEMTKNQVSLTCLVKGFYPSDIAVEWESNGQPENNYKTTPPVLDEDGSFALVSKLTVDKSRWQQGNVFSCSVMHEALHNHYTQKSLSLSPGK
chain 2: WPPPGTGDVVVQAPTQVPGFLGDSVTLPCYLQVPNMEVTHVSQLTWARHGESGSMAVFHQTQGPSYSESKRLEFVAARLGAELRNASLRMFGLRVEDEGNYTCLFVTFPQGSRSVDIWLRVLAKPQNTAEVQKVQLTGEPVPMARCVSTGGRPPAQITWHSDLGGMPNTSQVPGFLSGTVTVTSLWILVPSSQVDGKNVTCKVEHESFEKPQLLTVNLTVYYPPEVSISGYDNNWYLGQNEATLTCDARSNPEPTGYNWSTTMGPLPPFAVAQGAQLLIRPVDKPINTTLICNVTNALGARQAELTVQVKEGPPSEHSGISRNGGGSGAPTSSSTKKTQLQLEHLLLDLQMILNGINNYKNPKLTDMLTFEFYMPKKATELKHLQCLERELKPLEEVLNLAQSKNFHLRPRDLISNINVIVLELKGSETTFMCEYADETATIVEFLNRWITFCTSIISTLTGGGGSGGGDKTHTCPPCPAPEKKGGPSVFLFPPKPKDTLMISRTPEVTCVVVDVSHEDPEVKFNWYVDGVEVHNAKTKPREEQYNSTYRVVSVLTVLHQDWLNGKEYKCKVSNKALPAPIEKTISKAKGQPREPQVYVLPPSREEMTKNQVSLLCLVKGFYPSDIAVEWESNGQPENRYMTWPPVLDSDGSFFLYSKLTVDKSRWQQGNVFSCSVMHEALHNHYTQKSLSLSPGK
As for B3, the “IL-2 signal transduction, HEK-IL-2-TIGIT” value in test [1] was 29%. Further, in test [2], the “IL-2 signal transduction, HEK-IL-2” value was found to be 3%.
